Laboratory results taken from the nanobody polyreactivity screen of Harvey et al. (2022).

Test: yeast display, Sf9 membrane polyspecificity reagent, FACS + sequencing; frameworks hold sequencing errors
In short: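 Genes from sorted yeast were amplified by colony PCR, read by MiSeq 2 × 250 sequencing and filtered on CDR length. These cells carried a synthetic nanobody library in Saccharomyces cerevisiae BJ5465 and were sorted by FACS into low and high (top ~1%) gates on anti-HA and streptavidin fluorescence. Polyreactivity is labelled according to the gate of origin.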

Row | Sequence | polyreactivity (PSR sort gate)
1 | QVQLVESGGGLVQAGGSLRLSCAASGRIYGGNAKGWYRQAPGKEREFVAAITWRGGTTYYADSVKGRFTISRDNAKNTVYLQMNSLKPEDTAVYYCNALRYTRNTGYDYWGQGTQVTVSS | high polyreactivity
2 | QVQLVESGGGLVQAGGSLRLSCAASGSTYNNAMGWYRQAPGKERELVAAIRWSGGSTYYADSVKGRFTISRDNAKNTVYLQMNSLKPEDTAVYYCAARYRWSRKRYNDYDYWGQGTQVTVSS | high polyreactivity
3 | QVQLEESAGGLVQAGGSLRLSCAASGRIFTGSNVMVWYRQSPGKETEFVAVINSGGGSTYYADSVKGRFTISRDNAKNTVFLQMNSLKPEDTAVYYCAADVGGWGYYYWGQGTQVTVSS | low polyreactivity
4 | QVQLVESGGGLVHAGGSLRLSFAASGRTFQVYAMGWSRQAPGKERELVAAITSLGGTYYADSVKGRFTISRYNAKNTVYLQMNSLKPEDTAVYYCAARARSTPRKYYYTRGYWGQGTQVTVSS | high polyreactivity
5 | QVQLVESGGGLVQAGGSLRLSSAASGFTFNANAMGWYRQAPGKERELVAVITRSGGRTYYADSVKGRFTISRDNAKNTVYLQMNSLKPEDTAVYYCAADIGYTYEYYYWGQGTQVTVSS | high polyreactivity
6 | QVQLVESGGGLVQAGGSLRLSCAASGIIFAANAMGWYRQAPGKELELVAAISKNGGITYYADSVKGRFTISRDNAKNTVYLQMNSLIPEDPAVYYCAARWRQTRRYYYWGQGSQVTVSS | high polyreactivity
7 | QVQLVESGGGLVQAGGSLRLSCAASGLTFGSNAMGWYRQAPGKERELVAAITSSGGRTYYADSVKGRFTISRDNAKNTVYLQMNSLKPEVTAVYYCAAVYQILLYFPGRYDYWGQGTQVTVSS | low polyreactivity
8 | QVQLVESGGGLVQAGGSLRLSCAASGLTFYNYAMGWYIQAPGKERELVATITSSGARTYYADSVKGRFTISRDNAKNTVYLQMNSLTPEDTAVYYCAKQAYDQSPYNYWGQGTQVTVSS | high polyreactivity
9 | QVQLVESGGGLVQAGGSLRLSCAASGSTSPDNAMGWYRPAQGKERELVAAISSGGYTYADSVKGRFTISRDNAKNTVYLQMNSLKPEDTSVYYCAKDDLYSPAAGGGYWGEGTQVTVSS | low polyreactivity
10 | QVQLVESGGGLVQAGGSLRLSCAASGRIFPFYAMVWYRQAPGKERELVAAITTSGGSTYYADSVKGRFTISRDNAKNTVYLQMNRLKPEDTAVYYCNKRLGLELAPWEMNYWGQGTQVTVSS | low polyreactivity
11 | QVQLEESVGGLVQAGGSLRLSCAASGRIFAAYAMGWYRQEPGKERELVAAITGSGGRTYYADSVKGRFTISRDNAKNTVYLQMNSLKPEDTAVYYCAAESTPYSSVDRVAVYYWGQGTQVTVSS | high polyreactivity
12 | QVQLVESGGGLVQAGGSLRLSCAASGRIFGAYAMGWYRQAPGKERELVAAITSGGSTYYADSVKGRFTISRDNAKNTVYLQMNSLKPEDTAVYYCNALRRSQPWKYDYWGQGTQVTVSS | low polyreactivity
13 | QVQLVESGGGLVQAGGSLRLSCAASGSIFAQYAMGWYRQAPGKERELVATISSVGSTNYADSVKGRFTISRDNAKNTVYLQMNSLKPEDTAVYYCNAVRSGWGYFYGLNYWGQGTQVTVSS | low polyreactivity
14 | QVQLVESGGGLVQAGGSLRLSCAASGRTYDNTMGWYRKAHGKESELVAAISWSGGRTRYADSVKGRFTISRDNAKNTVYLQMNSLKPEDTAVYYCAAANGGYPPYRYVYGYYYWGQGTQVTVSS | high polyreactivity
15 | QVQLVESGGGLVQAGGSLRLSCAASGFTFSHYAMGWYRQAPGKERELVAAISWGGGSTYYADSVKGRFTISRDNAKNTVYLQMKSLIPEDTAVYYCARDVVYRGYYYGAFDYCGQGTQVTVSS | low polyreactivity
16 | QVHLEESGGGLVQAGGSLRLSWAASGATFSNYTMGWDRQAPGNERELVAAISRTGGSTYYADSVNGRFTISRDNAKNHVYLQISSLEPEDNAVYYCAAICYVGRYYYWGQGNQVTVSS | high polyreactivity
17 | QVQLVESGGGLVQAGGSLRLSCAASGIIFYYYAMGWYRQAPGKERELVAAISWSGDGTYYADSVKGRFTISRDKAKNTVYLQMNSLKPEDTAVYYCAALNDGFTGYDYLDEYTDYGYWGQGTQVTVSS | low polyreactivity
18 | QVQLVESGGGLVQAGGSLRLSSAASGLTFNYYAMGWYRQAPGKERELVAAISKSGGRTYYADSVKGRFTISRDNAKNTVYLQMNSLKPEDTAVYYCNDVVPRSRYFSWTYDYWGQGTQVTVSS | high polyreactivity
19 | QVQLVESGGGLVQAGGSLRLICAASGLTFTYYAMGWYRQAPGKERELVATISSSGRTNYADSVKGRFTISRDNAKNTVYLQMNSLKPEDTAVYYCAATLYHYWYADFDYWGQGTQVTVSS | high polyreactivity
20 | QVQLVESGGGLVQAGGSLRLSCAASGNIFRYYAMGWYRQSPGKERELVAAITRSGGSTYADSVKGRFTISRDNAKNTVYLQMNSLKPEDTAVYYCAAVGYRYFTIYDYWGQGTQVTVSS | low polyreactivity
21 | QVQLQESGGGLVQAGGSPRLSCAASDNIFPDSLMCWYRQAPGKERELVATIGFGATTNYEDSVKGRFTISRDNAKNTVYLQMNSLNPEDTALYYCAAVPLNYEYFCYWGQGTQVTVSS | low polyreactivity
22 | QVQLVESGGGLVQAGGSLRLSCAASGSTFWWNTMGWYRQAPGKESELVADIRTSGGGTYYADSVKGRFTISRDNAKNTVYLQMNSLKPEDTAVYYCNADPKWEMGSWGQGTQVTVSS | low polyreactivity

Row | Sequence | polyreactivity (PSR sort gate)
23 | QVQLVESGGGLVQAGGSLRLSCAASGFIFSYYAMGWYRQAPGKERELVAAITVTGGNTYYADSVKGRFTISRDNAKNTVYLQMNSLKPEDTAVYYCAAVVRGPGVSVYYWGQGTQVSVSS | low polyreactivity
24 | QVQLVESGGGLVQAGGSLRLSCAASGRNFYYYAMGWYRQAPGKEREFVARNRSSGGSTYADSVKGRFTISRDNAKNTVYLQMNSLKPEDTAVYYCARDGYTAVEYDYWGQGTQVTVSS | low polyreactivity
25 | QVQLVESGGGLVQAGGSLRLSCAASGFIIDANTMGWYRQAPGKERELVAAINESGGSTYYADSVKGRFTISRDNAKNTVYLQMNSLKPEDTAVYYCAADPTWDYGWSGYPYYYYWGQGTQVTVSS | high polyreactivity
26 | QVQLQDSGGVQAGGSLRLSCAASGYISRSDVMGWYRQAPGKERELVATIINGTITYYADSVKGRFPISRDNAKNTVYLQMNSLNPEDTAVQYCAVVQSDTDSLYYWGQGTQVTVSS | low polyreactivity
27 | QDQLVESGGGLVQAGGSLRLSCAASGSILAYNAMGWYRQAPGKERQLVAAIRLSGGSTYYADSVKGRFTISRDNAKNTVYLQMNSLKPEDTAVYYCARRYYRYDTRKYNYWGQGTQVSVSS | high polyreactivity
28 | HFQLVESGGRLVQAGGSIRLSCAASGRIFRPNAMGWYRQAPRKERQLVAAISYSGATTYYADSVKGRFTISRDNEKNTVYLQMNSLKPEDTAVYYCAACGTSAKEFGYWGQGTQVTVSS | low polyreactivity
29 | QVQLQESGGGLVQAGGSLRLSCAASGSIFYEFYMGWYRQAPGKERELVAAIANGASTYYADSVKGRFTISRDNSKNTVYLQMSSLKPEDTAVYYCAVNTTSDIDYIYWGQGTQVNVSS | low polyreactivity
30 | QVQHVESGGGLVQAGGSLRLSCAASGRIFHYYAMGWYRQAPGKERELVAAINKSGGRTYYADSVKGRFTISRDNAKNTVYLQMNSLKPEDTAVYYCNKRSVPGTYYPTPVRYKYDYWGQGTQVTVSS | high polyreactivity
31 | QVQHVESGGGLVKAGGSLRLSCAASGFTFGVYAMGWYRLAPGKERELVAAISRRGTSTYYADSVKGRFTISRDNAKNTVYLQMNSLKPEDTAVYYCNARRYQVTVDHWGQGTQVTVSS | high polyreactivity
32 | QVQLVESGGGLVQAGGSLRLICAASGRTFSYYAIAWYRPAPGKERELVAAINWSGTRTYYADSVTGRCTISRDNAKNTVYLQMNSLNPEDTAVYYCARRWVGYDYWGQGTQVTVSS | high polyreactivity
33 | QVQLVESGGGLVQAGGSLRLSCAASGLIFGWYAMGWYRPEPGKEREFVASIRYGGGSTYYADSVKGRFTISRDNAKNTVYLQMNSLKPEDTAVYYCAADRYPWHLQYVEYDSDYWGQGTQVTVSS | low polyreactivity
34 | QVQLVESGGGLVQAGGSLRLSCAASGSIFRGNAMGWYRQAPGKERELDATISNGGSTNYADAVKGRFTISRDNAKNTVYLQMNSLKPEDTAVYYCAKPLYKTWWGYAYDYWGQGTQVTVSS | high polyreactivity
35 | QVQLVESGGGLVQAGGSLRLSCAASGSTIPPYAMGWYRQAPGKERELVAAITSGGSTYYAESVKGRFTISRDNAKNTVYLQMNSLKPEDTAVYSCAASWDPWEYDYWGQGTQVTVSS | low polyreactivity
36 | QVQLVESGGGLVQAGGSLRLSCAASGLIFYRYTMGWYRQAPGKEREFVAAITAGGSTYYADSVKGRFTISRDNAKNTVYVQMNSLKPEDTAVYYCATLVRLLQYTYIKYDYWGQGTQVTVSS | high polyreactivity
37 | QVQLVESGGGLVQAGGSLRLSCAASGFTFYRYAMGWYRQAPGKERELVAAISSSGGTTYYADSVKGRFTISRDNAKNTVYLQMNSLKPEDTAVYYCAARGWPTWGWGYDYWGQGTQVTVSS | high polyreactivity
38 | QVQLVESGGRLVQAGGRLRLSCAASGRTILLYAMGRYRQAPGKESELVPAIRSSTVSTYYADSVKGRFTISRDNAKNTVYLQMYSLKPEDTAVYYCAASRPKYGPSGVRYNYWGQGTQVTVSS | high polyreactivity
39 | QVQLVESGGGLVQAGGSLRLSCAASGLTIRYYAMGWYRKAPGKERELVAAISSSGGRTYYADSVKGRFTISRDNAKNTVYLQMNSLKPEDTAVYYCSRDYGYGLMGYWGQGTQVTVSS | high polyreactivity
40 | QVQLVESGGGLVQAGGSLRLSCAASGRILTSNAMGWYRQAPGKERELVAAISWSGGSTYYADSVKGRFTISRDNAKNTVYLQMNILKPEDTAVYYCAAPLYWVDDFESGWRYYYWGQGTQVTVSS | low polyreactivity
41 | QVQLVESGGGLVQAGGSLRLSCAASGFTFLVYAMGWYRQAPGKERELVAAITWSGDSTYYADSVKGRFTISRDNAKNTVYLQMNSLKPEDTAVYYCAAAYRYGTLYYYWGQGTQVTVSS | low polyreactivity
42 | QVQLVESGGGLVQAGGSLRLSCAASGLTFKYYAMGWYRQAPGKERELVAAISASGGRTSYADSVKGRFTISRDNAKNTFYLQMNSLKPEDTAVYYCNADITSSGPKSDYWGQGTQVTVSS | high polyreactivity
43 | QVQLVESGAGIVQAGGSLRLSCAASGSIFYYNAMGVYRQAPGKERELVAAITSADSTNYADSVKGRFTISRDNAKNTVYLQMNSLKPEDTAVYFCAADFLAALTYYRTYDYWGQGTQVTVSS | low polyreactivity
